Non-standard residues stand in square brackets, D forms with d. No end group written: not given here.
Each binder was assayed against recombinant αIIbβ3 headpiece (assay: FP).

| Kd [µM] | Binder |
| --- | --- |
| 217 | AGD[dV] [AGD(v) (D-valine in place of L-valine)] |
| 67.6 | AGDV-OMe [AGDV-OCH3 (O-methylated AGDV)] |
| 50.9 | AGDV-NH2 [AGDV-NH2 (amidated AGDV)] |

Source: PMC4813479 (2015)
